Measured values published in patent publication US20240239894A1, “THERAPEUTIC BINDING MOLECULES” (MedImmune Limited, priority 2020, published 2024).

T1: immobilized recombinant human B7-H4 (Homo sapiens, UniProt Q7Z7D3)
T1 sequence (Q7Z7D3 25-282): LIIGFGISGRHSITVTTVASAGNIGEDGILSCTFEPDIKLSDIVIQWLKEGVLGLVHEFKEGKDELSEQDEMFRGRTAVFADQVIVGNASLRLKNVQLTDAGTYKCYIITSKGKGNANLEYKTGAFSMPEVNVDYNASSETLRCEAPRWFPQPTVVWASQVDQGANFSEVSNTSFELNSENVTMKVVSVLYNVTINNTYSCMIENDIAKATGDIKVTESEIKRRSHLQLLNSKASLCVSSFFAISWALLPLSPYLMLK

B1: E02-GL-SG3249: clone E02-GL (Maia heavy chain backbone) conjugated to the PBD cytotoxin SG3249 (conjugate)
heavy: QVQLQQWGAGLLKPSETLSLACTVYGGSFSGYYWNWIRQPPGKGLEWIGEINHSGSTSYNPSLKSRVTISVDTSKNQFSLKLSSVTAADTAVYYCARVLYNWNVDSWGQGTLVTVSSASTKGPSVFPLAPSSKSTSGGTAALGCLVKDYFPEPVTVSWNSGALTSGVHTFPAVLQSSGLYSLSSVVTVPSSSLGTQTYICNVNHKPSNTKVDKRVEPKSCDKTHTCPPCPAPELLGGPSCVFLFPPKPKDTLMISRTPEVTCVVVDVSHEDPEVKFNWYVDGVEVHNAKTKPREEQYNSTYRVVSVLTVLHQDWLNGKEYKCKVSNKALPAPIEKTISKAKGQPREPQVYTLPPSREEMTKNQVSLTCLVKGFYPSDIAVEWESNGQPENNYKTTPPVLDSDGSFFLYSKLTVDKSRWQQGNVFSCSVMHEALHNHYTQKSLSLSPGK
light: DIQMTQSPSSLSASVGDRVTITCRASQDIRNDVGWYQQKPGKAPKRLIYAASRLQSGVPSRFSGSGSGTEFTLTISSLQPEDFATYYCLQHNSYPRTFGQGTKVEIKRTVAAPSVFIFPPSDEQLKSGTASVVCLLNNFYPREAKVQWKVDNALQSGNSQESVTEQDSKDSTYSLSSTLTLSKADYEKHKVYACEVTHQGLSSPVTKSFNRGEC
B2: E02-GL: germlined ZY0EQD-E02, VH SEQ ID NO: 45, VL SEQ ID NO: 34; antibody intermediate of E02-GL-SG3932 (antibody, V domains shown)
VH: QVQLQQWGAGLLKPSETLSLACTVYGGSFSGYYWNWIRQPPGKGLEWIGEINHSGSTSYNPSLKSRVTISVDTSKNQFSLKLSSVTAADTAVYYCARVLYNWNVDSWGQGTLVTVSS
VL: DIQMTQSPSSLSASVGDRVTITCRASQDIRNDVGWYQQKPGKAPKRLIYAASRLQSGVPSRFSGSGSGTEFTLTISSLQPEDFATYYCLQHNSYPRTFGQGTKVEIK

Tests used:
[1] = system: HT29 cell line expressing human B7-H4, SKBR3, HCC1569; assay: Cytotoxicity assay versus 1D11 ADC; assay type: cell-based; details: six days
Experimental: Cell lines were detached from tissue culture flasks by accutase (Gibco, Paisley, UK), pelleted by centrifugation, and resuspended in growth media (McCoy's 5A,10% FBS, 400 μg/mL G418 for HT29-hB7H4 clone 44, McCoy's 5A, 10% FBS for SKBR3 and RPMI-1640, 10% FBS for HCC1569). Viable cells were counted by trypan blue exclusion using a haemocytometer. Cell densities were adjusted to 2.7×10^4 cells/mL in growth media. 75 μL/well of the cell suspension (2×10^3 cells) was added to 96-well white walled clear bottom tissue culture treated plates and cultured overnight in a humidified tissue culture incubator at 37° C. in 5% CO2. […]
Cells were cultured in the presence of ADCs or DPBS (mock-treated control cells) for six days. Cell viability was assessed using CellTiter-Glo® assay: 100 μL of CellTiter-Glo® (Promega, Southampton, UK) was added to each well. […] Luminescence was measured using an Envision multilabel plate reader (Perkin Elmer, Seer Green, UK). The potency for test article antibodies (e.g. 1D11-MMAE or E02-GL-MMAE or E02-GL-SG3249) was determined by generating half-maximal inhibitory concentration (IC50) values using a nonlinear regression model [log agonist vs. response—variable slope (three parameters)] in GraphPad Prism, version 7 (GraphPad Software, La Jolla, CA) and presented as percent cell viability relative to Mock-treated control cells — […]

[2] = system: non-transfected HEK293 cells; assay: In vitro cytotoxicity; assay type: cell-based
Description: The clone E02-GL was conjugated to the cytotoxin SG3249 (providing E02-GL-SG3249), and tested for the ability to target and kill both cynomolgus B7-H4 transfected and non-transfected B7-H4 cells. For convenience, the antibody tested in this example comprised the Maia heavy chain backbone (e.g. having a cysteine insertion providing an additional site to which SG3249 can conjugate, see SEQ ID NO: 48) was used. No loss of efficacy occurs where other heavy chain backbones (e.g. lacking such cysteine insertion, for example see SEQ ID NO: 52) is used. The antibody R347 conjugated to SG3249 was used as a control.

HEK 293 JI hB7H4 pool = assay: E02-GL MESF on cell line; assay type: cell-based; details: has some negative cells in pool
HT29-huB7-H4 Clone 26 = assay: Live cell imaging internalization; assay type: cell-based, human; details: 5 μg/mL Alexa Fluor 568 conjugate
Experimental: (§1) The internalization and intracellular trafficking properties of antibody E02-INT was evaluated using a quantitative live cell imaging assay in MX-1 human breast cancer cells and HT29 huB7-H4 Clone 26 human colon cancer cells overexpressing B7-H4.

MX-1 = assay: Live cell imaging internalization; assay type: cell-based, human; details: 5 μg/mL Alexa Fluor 568 conjugate
Experimental: as §1

HT29 hB7H4 clone 4 = assay: E02-GL MESF on cell line; assay type: cell-based, human
HCC1954 = assay: E02-GL MESF on cell line; assay type: cell-based
SKBR3 = assay: E02-GL MESF on cell line; assay type: cell-based, human
HCC1569 = assay: E02-GL MESF on cell line; assay type: cell-based
HT29 hB7H4 clone 26 = assay: E02-GL MESF on cell line; assay type: cell-based, human
[3] = target: T1, immobilized recombinant human B7-H4; assay: DELFIA-ELISA; assay type: binding
Experimental: To assess whether conjugation of the topoisomerase 1 linker-warhead affected binding properties of the E02-INT antibody, the binding affinity of E02-INT and E02-GL-SG3932 were measured using a DELFIA-ELISA method and an SPR method. […] The kinetic rate constants (kon and koff) and equilibrium dissociation constants (KD) of E02-INT and E02-GL-SG3932 for human B7-H4 antigen was also determined by SPR, using an antibody capture method.

HT29 = assay: E02-GL MESF on cell line; assay type: cell-based, human; details: HT29, B7-H4 negative
MDA-MB-468 = assay: E02-GL MESF on cell line; assay type: cell-based, human
Experimental: A number of cancer cell lines were treated with clone E02-GL-SG3249 (e.g. conjugated to a cytotoxin), as outlined in Table 15.

Row | Molecule | cytotoxicity potency compared with 1D11 conjugated to (A114C-) MMAE [1] | cell killing [2] | E02-GL MESF (HEK 293 JI hB7H4 pool) | internalization half-life (HT29-huB7-H4 Clone 26) | internalization half-life (MX-1) | E02-GL MESF (HT29 hB7H4 clone 4) | E02-GL MESF (HCC1954) | E02-GL MESF (SKBR3) | E02-GL MESF (HCC1569) | E02-GL MESF (HT29 hB7H4 clone 26) | EC50 [3] [nM] | E02-GL MESF (HT29) | E02-GL MESF (MDA-MB-468)
1 | B1 | superior cytotoxicity potency | No significant killing | – | – | – | – | – | – | – | – | – | – | –
2 | B2 | – | – | 2,481,266 MESF | 127 (±35 SD) minutes | 102 (±18 SD) minutes | 71,928 MESF | 47,173 MESF | 78,343 MESF | 112,608 MESF | 429,398 MESF | 1.98 | 2,101 MESF | 92,157 MESF
